Data reported in article PMC12109740, “Modulation of Kv Channel Gating by Light-Controlled Membrane Thickness” (Biomolecules, 2025).

Molecular target: the molecule itself
Assay: SEC; Superdex 200 Increase 10/300 GL, 100 mM KCl, 25 mM Tris pH 8.0, in detergent (DM by the methods, DDM by the results); peak at 11 mL

B1: KvAP wild type (voltage-gated potassium channel from Aeropyrum pernix) (natural protein)
chain: GGRVRNIGDVMEHPLVELGVSYAALLSVIVVVVEYTMQLSGEYLVRLYLVDLILVIILWADYAYRAYKSGDPAGYVKKTLYEIPALVPAGLLALIEGHLAGLGLFRLVRLLRFLRILLIISRGSKFLSAIADAADKIRFYHLFGAVMLTVLYGAFAIYIVEYPDPNSSIKSVFDALWWAVVTATTVGYGDVVPATPIGKVIGIAVMLTGISALTLLIGTVSNMFQKILVGEPEPSCSPAKLAEMVSSMSEEEFEEFVRTLKNLRRLENSMK
notes: KvAP, voltage-gated potassium channel of Aeropyrum pernix, wild type; also called Kv channel from Aeropyrum pernix; source: E. coli C43 (DE3), pET21a-derived vector, solubilised in detergent, purified (Ni-NTA, SEC on Superdex 200 Increase)
stoichiometry N: 4
